{"source": "patent US20110262436A1", "about": "“TREATMENT METHOD” (Genentech, Inc., priority 2008, published 2011)", "key": {"[1]": {"test": "PK study, single IV bolus dose in nude mice", "format": "in vivo", "procedure": "(§1) PK studies. PK studies were conducted in mice, rats, and cynomolgus monkeys.\nThe expected serum concentration at the time of serum sample collection was estimated based on PK parameters determined in the PK study in non-tumor bearing mice (described above). […] These PK parameters were used to estimate serum concentration by WinNonlin Enterprise Version 5.0.1 (Pharsight Corp., Mountain View, Calif.) for doses tested in IV infusion study.\nPharmacokinetic Assays for MetMAb in Mouse Serum and Rat Serum. […] A direct ELISA assay was developed for quantification of MetMAb in mouse serum and Sprague-Dawley rat serum. Plates were coated with human c-Met-Fc fusion protein to which samples, standards, and dosing solutions were added. Goat anti-human F(Ab′)2 horseradish peroxidase (HRP) was used for detection. Tetrapethyl benzidine (TMB) peroxidase substrate was added for signal development. The substrate reaction was stopped with phosphoric acid. The plates were read at an absorbance of 450 nm. […] The lower limit of quantitation in the assay was 0.47 ng/mL and the upper limit of quantification was 30 ng/mL. The minimum dilution for nude mouse serum samples was 1/10, resulting in a minimum quantifiable concentration of 4.7 ng/mL, with an indefinite upper limit. The minimum dilution for rat serum samples was 1/50, resulting in a minimum quantifiable concentration of 23.5 ng/mL, with an indefinite upper limit.\n(§2) Mouse, Rat, and Cynomolgus Monkey PK data analysis. […] PK parameters were estimated using WinNonlin Enterprise Version 5.0.1 (Pharsight Corp., Mountain View, Calif.). The nominal dose administered for each group was used for modeling. Since a single concentration-time profile for mice was determined for each group, one estimate of each PK parameter was obtained and is reported, along with the standard error (SE) of the fit of each PK parameter. For rats and monkeys, PK parameters are reported as mean (+/−SD).\n(§3) For IV administrations, a two-compartment elimination model with IV bolus input and first-order elimination was used to describe the observed data (WinNonlin Model 7). Concentrations were weighted using iterative reweighting (1/ŷ^2) and the Nelder-Mead minimization algorithm. The following equation was used to calculate concentration over time in Model 7: […]"}, "[2]": {"test": "PK studies in mice, rats, and cynomolgus monkeys (stated across species)", "format": "in vivo", "settings": "cynomolgus monkeys", "procedure": "as §1, §2, §3"}, "c-met": {"biological_target": "c-met (Rattus norvegicus, UniProt P97523)", "sequence (P97523 25-1382)": "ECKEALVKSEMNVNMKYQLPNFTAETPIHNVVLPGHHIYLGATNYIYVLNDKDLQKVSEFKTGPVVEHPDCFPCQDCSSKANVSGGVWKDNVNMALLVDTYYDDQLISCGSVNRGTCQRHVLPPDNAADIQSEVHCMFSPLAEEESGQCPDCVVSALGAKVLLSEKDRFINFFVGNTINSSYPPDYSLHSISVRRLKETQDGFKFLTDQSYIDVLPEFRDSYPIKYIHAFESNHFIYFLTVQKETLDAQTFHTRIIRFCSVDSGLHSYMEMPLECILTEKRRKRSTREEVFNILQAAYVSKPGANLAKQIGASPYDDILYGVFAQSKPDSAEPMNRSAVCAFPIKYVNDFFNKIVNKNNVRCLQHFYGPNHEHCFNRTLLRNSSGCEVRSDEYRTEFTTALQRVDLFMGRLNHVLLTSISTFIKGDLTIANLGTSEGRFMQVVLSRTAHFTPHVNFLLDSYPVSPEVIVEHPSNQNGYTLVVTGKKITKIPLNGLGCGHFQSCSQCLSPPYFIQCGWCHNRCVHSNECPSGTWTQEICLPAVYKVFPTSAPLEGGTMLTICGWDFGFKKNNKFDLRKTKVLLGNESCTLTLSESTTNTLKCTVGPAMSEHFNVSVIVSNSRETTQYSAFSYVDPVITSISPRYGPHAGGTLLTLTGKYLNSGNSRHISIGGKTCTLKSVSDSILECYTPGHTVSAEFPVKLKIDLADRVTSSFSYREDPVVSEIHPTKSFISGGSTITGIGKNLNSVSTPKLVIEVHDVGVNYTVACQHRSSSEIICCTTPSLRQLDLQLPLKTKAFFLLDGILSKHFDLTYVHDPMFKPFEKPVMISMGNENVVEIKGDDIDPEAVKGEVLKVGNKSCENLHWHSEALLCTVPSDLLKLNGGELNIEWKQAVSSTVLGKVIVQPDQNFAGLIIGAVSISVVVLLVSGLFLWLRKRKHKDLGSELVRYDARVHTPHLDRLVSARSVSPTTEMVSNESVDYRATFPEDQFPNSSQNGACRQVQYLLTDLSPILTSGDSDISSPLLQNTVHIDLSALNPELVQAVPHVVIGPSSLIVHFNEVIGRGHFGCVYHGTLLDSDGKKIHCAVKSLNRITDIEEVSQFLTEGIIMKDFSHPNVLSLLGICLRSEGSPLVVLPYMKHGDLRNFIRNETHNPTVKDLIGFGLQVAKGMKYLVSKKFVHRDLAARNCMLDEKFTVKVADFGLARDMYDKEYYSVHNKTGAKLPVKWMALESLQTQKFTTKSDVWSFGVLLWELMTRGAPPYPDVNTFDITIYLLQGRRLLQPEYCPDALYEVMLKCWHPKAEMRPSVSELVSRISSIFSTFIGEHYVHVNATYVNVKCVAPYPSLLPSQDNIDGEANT", "test": "Binding to c-met in rats"}, "[3]": {"test": "Estimation of human PK by allometric scaling", "parameters": "species or system humans", "excerpt": "Estimation of Human PK Profile.\nOne approach was allometric scaling, which is based on the assumption that many physical and physiological parameters vary according to a mathematical function of body weight (BW)\nY=a×BWb • where Y is the variable of interest, a is the y-axis intercept, and b is slope.\nThe log plot of CL value versus body weight, repression, and R-squared values were generated by KaleidaGraph (version 3.6)."}, "[4]": {"test": "Repeat-dose safety study in cynomolgus monkeys", "format": "in vivo", "settings": "GLP toxicology study", "excerpt": "Repeat-dose safety study."}, "[5]": {"test": "Safety factor calculation (cynomolgus monkey vs proposed human starting dose)", "parameters": "species or system cynomolgus monkeys", "settings": "Planned Phase Ia starting dose 1 mg/kg", "procedure": "Safety Factor Calculation. Safety factor was calculated for Dose, AUC, Cmax as the ratio at the highest non-severely toxic dose (HNSTD) observed in the single or repeat-dose safety study to the proposed phase I starting dose. The equations are:\nSafety factor (SF)Dose=DoseCyno/DoseHuman\nSFCmax=(Cmax-Cyno)/(Cmax-Human)\nFor body surface area calculation: The body weight to surface area index is 12 kg/m^2 for cynomolgus monkeys and 37.5 kg/m^2 for humans."}, "KP4 xenograft": {"test_system": "KP4 xenograft", "test": "PK/PD model of anti-tumor efficacy in KP4 xenograft mice (MTC)", "settings": "individual MTC values (n=177) KP4 mice", "procedure": "PK parameter estimates were used as a forcing function to model the pharmacodynamic (PD) endpoint of tumor progression (PD) in KP4 xenograft mice.\nTumor measurements were taken via with calipers, and mice entered the study with tumor volumes of approximately 200 mm^3. Study data up to 21 days from a total of 177 KP4 mice were used in the modeling analysis. Tumor volumes (mm^3) were converted to mass (mg) assuming 1 mm^3=1 mg tumor tissue. A mixed effects PK/pharmacodynamic (PD) model describing anti-tumor efficacy in KP4 xenograft mice was fit to the tumor data using NONMEM software (Double Precision, version V, level 1.0 UCSF, San Francisco Calif.).\nMTC is calculated from the differential equation describing tumor mass where (dTM(t)/dt=0)"}, "[6]": {"test": "Phase I dose-escalation study: pharmacokinetics", "format": "in vivo, humans", "settings": "patients", "procedure": "Study design. There are two stages to this study, a dose-escalation stage and an expansion stage.\nStudy treatment. […] Dose levels tested in Phase I were: 1 mg/kg, 4 mg/kg, 10 mg/kg, 20 mg/kg, and 30 mg/kg.\nMetMAb was administered as an IV infusion. […] The MetMAb infusion was slowed or interrupted for patients experiencing infusion-associated symptoms.\nPharmacokinetics of the study drug were determined by serially monitoring of serum samples for MetMAb throughout the study."}, "HGF": {"test_system": "HGF", "test": "Phase I study: serum HGF levels by ELISA", "format": "in vivo, humans", "procedure": "(§4) Pre- and post-dose serum is collected for evaluation of pharmacodynamic (PD) biomarkers that could be affected by inhibition of Met signaling. In addition, archival tissue is obtained for exploratory diagnostic assessments.\nSerum HGF levels were determined using ELISA. […] For patient 12007, HGF expression increased to baseline levels in subsequent cycles. For patient 11009, HGF levels decreased by 70% post drug treatment and remained low for the duration of the study."}, "IL-8": {"test_system": "IL-8", "test": "Phase I study: serum IL-8 levels by electrochemiluminescence", "format": "in vivo, humans", "procedure": "as §4\nSerum IL-8 levels (diluted 1:5) were determined using an electrochemiluminescence based method as directed by the manufacturer (Meso Scale Discovery, Gaithersburg Md.; Cat. No. K111ANC)."}, "[7]": {"settings": "Athymic nude mouse, single IV dose"}, "[8]": {"settings": "non-tumor-bearing mice, two-compartmental model"}}, "note": "Entries after “also recorded” stand apart in the source; their conditions may differ."}
{"substance": "MetMAb: recombinant, humanized, monovalent (one-armed) monoclonal antibody directed against human c-met", "values": [{"measurement": "Terminal Half-Life", "setting": "[1]; [7]", "result": 113, "unit": "h"}, {"measurement": "V1", "setting": "[1]; [7]", "result": 0.0488, "unit": "L/kg"}, {"measurement": "Vss", "setting": "[1]; [7]", "result": 0.14, "unit": "L/kg"}, {"measurement": "Serum disposition", "setting": "[1]; non-tumor-bearing mice", "result": "biphasic and exhibited dose-proportionality"}, {"measurement": "CLd (inter-compartmental clearance)", "setting": "[1]; [8]", "result": 7.92, "unit": "mL/h/kg"}, {"measurement": "V2 (apparent peripheral volume of distribution)", "setting": "[1]; [8]", "result": 0.0907, "unit": "L/kg"}, {"measurement": "Beta half-life", "setting": "[2]", "result": "96 to 120", "unit": "h"}, {"measurement": "Binding to c-met", "setting": "c-met", "result": "does not bind to c-met"}, {"measurement": "Predicted clearance in humans", "setting": "[3]", "result": 0.417, "unit": "mL/h/kg"}, {"measurement": "Highest non-severely toxic dose", "setting": "[4]", "result": 100, "unit": "mg/kg"}, {"measurement": "Multiple Dose Safety Factor: Body Surface Area", "setting": "[5]", "result": 105}, {"measurement": "Multiple Dose Safety Factor: Total Dose", "setting": "[5]", "result": 325}, {"measurement": "Single Dose Safety Factor: Body Surface Area", "setting": "[5]", "result": 32}, {"measurement": "Single Dose Safety Factor: Single Dose", "setting": "[5]", "result": 100}, {"measurement": "MTC, 90% of values", "setting": "KP4 xenograft", "result": "below 110 μg/mL"}, {"measurement": "Median MTC (Minimum Tumorostatic Concentration)", "setting": "KP4 xenograft", "result": "approximately 15 μg/mL"}, {"measurement": "Inter-individual variability of serum concentrations at each dose level", "setting": "[6]", "result": "less than 30%"}, {"measurement": "Clearance compared to the other dose groups", "setting": "[6]; 1 mg/kg dose", "result": "slightly faster clearance"}, {"measurement": "Half-life", "setting": "[6]; IV Q3W", "result": "approximately 10 days"}, {"measurement": "PK linearity", "setting": "[6]; dose range 4 to 30 mg/kg", "result": "linear pharmacokinetics"}, {"measurement": "Change in serum HGF expression, two patients with highest baseline HGF", "setting": "HGF; 24 h post drug treatment", "result": "significant decrease; also recorded: significantly decreased"}, {"measurement": "Change in serum HGF expression with MetMAb treatment, in general", "setting": "HGF; Phase I patients", "result": "little or no increase"}, {"measurement": "Decrease of serum HGF levels post drug treatment, patient 11009", "setting": "HGF; remained low for the duration of the study", "result": 70, "unit": "%"}, {"measurement": "Reduction in circulating IL-8", "setting": "IL-8; 24 h following treatment, subjects with baseline IL-8 >50 pg/ml", "result": "> 50", "unit": "%"}, {"measurement": "Change in serum IL8 following MetMAb infusions", "setting": "IL-8; most patients with baseline serum IL8 above normal controls", "result": "decrease in serum IL8"}, {"measurement": "Change in IL-8 expression post-MetMAb treatment", "setting": "IL-8; subjects with less than 50 pg/ml baseline IL-8", "result": "did not change significantly"}]}
